Legend:
HeLa Kyoto [1] = experiment: solubility change mitosis vs G1/S (difference of NP-40 vs SDS log2 ratios) (log2 ratio difference); higher = more soluble in mitosis
HeLa Kyoto [2] = experiment: solubility in G1/S (NP-40 vs SDS abundance) (log2 ratio); higher = more soluble; conditions: cell cycle stage: G1/S
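Wherever solubility change mitosis vs G1/S (difference of NP-40 vs SDS log2 ratios) is given: synchronized HeLa Kyoto cells (double thymidine block for G1/S, nocodazole release for mitosis), protein amounts in NP-40 versus SDS lysates quantified by mass spectrometry, three biological replicates.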
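Wherever solubility in G1/S (NP-40 vs SDS abundance) is given: HeLa Kyoto cells arrested at G1/S by double thymidine block, proteins quantified by TMT10plex mass spectrometry in mild NP-40 versus SDS extracts, three biological replicates.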

Sequence of CSNK1G1 (chain, as listed by the source): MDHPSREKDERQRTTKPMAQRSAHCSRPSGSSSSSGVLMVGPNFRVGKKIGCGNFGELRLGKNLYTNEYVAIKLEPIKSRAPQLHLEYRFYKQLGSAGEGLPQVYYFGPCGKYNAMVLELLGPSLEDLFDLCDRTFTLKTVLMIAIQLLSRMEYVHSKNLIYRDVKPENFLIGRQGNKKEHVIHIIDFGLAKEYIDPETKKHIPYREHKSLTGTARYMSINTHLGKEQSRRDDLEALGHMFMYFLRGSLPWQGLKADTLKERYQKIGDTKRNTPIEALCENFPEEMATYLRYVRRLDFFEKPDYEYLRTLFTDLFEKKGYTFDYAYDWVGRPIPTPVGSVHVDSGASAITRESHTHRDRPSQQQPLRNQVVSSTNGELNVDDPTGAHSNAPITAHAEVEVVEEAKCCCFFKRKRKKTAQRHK

Row | Substance | solubility change mitosis (log2) (HeLa Kyoto [1]) | solubility in G1/S (log2) (HeLa Kyoto [2])
1 | MAKFGVHRILLLAISLTKCLESTKLLADLKKCGDLECEALINRVSAMRDYRGPDCRYLNFTKGEEISVYVKLAGEREDLWAGSKGKEFGYFPRDAVQIEEVFISEEIQMSTKESDFLCLLGVSYTFDNEDSELNGDYGENIYPYEEDKDEKSSIYESDFQIEPGFYATYESTLFEDQVPALEAPEDIGSTSESKDWEEVVVESMEQDRIPEVHVPPSSAVSGVKEWFGLGGEQAEEKAFESVIEPVQESSFRSRKIAVEDENDLEELNNGEPQTEHQQESESEIDSVPKTQSELASESEHIPKPQSTGWFGGGFTSYLGFGDEDTGLELIAEESNPPLQDFPNSISSDKEATVPCTEILTEKKDTITNDSLSLKPSWFDFGFAILGFAYAKEDKIMLDDRKNEEDGGADEHEHPLTSELDPEKEQEIETIKIIETEDQIDKKPVSEKTDESDTIPYLKKFLYNFDNPWNFQNIPKETELPFPKQILDQNNVIENEETGEFSIDNYPTDNTKVMIFKSSYSLSDMVSNIELPTRIHEEVYFEPSSSKDSDENSKPSVDTEGPALVEIDRSVENTLLNSQMVSTDNSLSSQNYISQKEDASEFQILKYLFQIDVYDFMNSAFSPIVILTERVVAALPEGMRPDSNLYGFPWELVICAAVVGFFAVLFFLWRSFRSVRSRLYVGREKKLALMLSGLIEEKSKLLEKFSLVQKEYEGYEVESSLKDASFEKEATEAQSLEATCEKLNRSNSELEDEILCLEKELKEEKSKHSEQDELMADISKRIQSLEDESKSLKSQVAEAKMTFKIFQMNEERLKIAIKDALNENSQLQESQKQLLQEAEVWKEQVSELNKQKVTFEDSKVHAEQVLNDKESHIKTLTERLLKMKDWAAMLGEDITDDDNLELEMNSESENGAYLDNPPKGALKKLIHAAKLNASLKTLEGERNQIYIQLSEVDKTKEELTEHIKNLQTEQASLQSENTHFENENQKLQQKLKVMTELYQENEMKLHRKLTVEENYRLEKEEKLSKVDEKISHATEELETYRKRAKDLEEELERTIHSYQGQIISHEKKAHDNWLAARNAERNLNDLRKENAHNRQKLTETELKFELLEKDPYALDVPNTAFGREHSPYGPSPLGWPSSETRAFLSPPTLLEGPLRLSPLLPGGGGRGSRGPGNPLDHQITNERGESSCDRLTDPHRAPSDTGSLSPPWDQDRRMMFPPPGQSYPDSALPPQRQDRFCSNSGRLSGPAELRSFNMPSLDKMDGSMPSEMESSRNDTKDDLGNLNVPDSSLPAENEATGPGFVPPPLAPIRGPLFPVDARGPFLRRGPPFPPPPPGAMFGASRDYFPPGDFPGPPPAPFAMRNVYPPRGFPPYLPPRPGFFPPPPHSEGRSEFPSGLIPPSNEPATEHPEPQQET [CTAGE5] | 0.181 | -0.0196
2 | MFFYLSKKISIPNNVKLQCVSWNKEQGFIACGGEDGLLKVLKLETQTDDAKLRGLAAPSNLSMNQTLEGHSGSVQVVTWNEQYQKLTTSDENGLIIVWMLYKGSWIEEMINNRNKSVVRSMSWNADGQKICIVYEDGAVIVGSVDGNRIWGKDLKGIQLSHVTWSADSKVLLFGMANGEIHIYDNQGNFMIKMKLSCLVNVTGAISIAGIHWYHGTEGYVEPDCPCLAVCFDNGRCQIMRHENDQNPVLIDTGMYVVGIQWNHMGSVLAVAGFQKAAMQDKDVNIVQFYTPFGEHLGTLKVPGKEISALSWEGGGLKIALAVDSFIYFANIRPNYKWGYCSNTVVYAYTRPDRPEYCVVFWDTKNNEKYVKYVKGLISITTCGDFCILATKADENHPQEENEMETFGATFVLVLCNSIGTPLDPKYIDIVPLFVAMTKTHVIAASKEAFYTWQYRVAKKLTALEINQITRSRKEGRERIYHVDDTPSGSMDGVLDYSKTIQGTRDPICAITASDKILIVGRESGTIQRYSLPNVGLIQKYSLNCRAYQLSLNCNSSRLAIIDISGVLTFFDLDARVTDSTGQQVVGELLKLERRDVWDMKWAKDNPDLFAMMEKTRMYVFRNLDPEEPIQTSGYICNFEDLEIKSVLLDEILKDPEHPNKDYLINFEIRSLRDSRALIEKVGIKDASQFIEDNPHPRLWRLLAEAALQKLDLYTAEQAFVRCKDYQGIKFVKRLGKLLSESMKQAEVVGYFGRFEEAERTYLEMDRRDLAIGLRLKLGDWFRVLQLLKTGSGDADDSLLEQANNAIGDYFADRQKWLNAVQYYVQGRNQERLAECYYMLEDYEGLENLAISLPENHKLLPEIAQMFVRVGMCEQAVTAFLKCSQPKAAVDTCVHLNQWNKAVELAKNHSMKEIGSLLARYASHLLEKNKTLDAIELYRKANYFFDAAKLMFKIADEEAKKGSKPLRVKKLYVLSALLIEQYHEQMKNAQRGKVKGKSSEATSALAGLLEEEVLSTTDRFTDNAWRGAEAYHFFILAQRQLYEGCVDTALKTALHLKDYEDIIPPVEIYSLLALCACASRAFGTCSKAFIKLKSLETLSSEQKQQYEDLALEIFTKHTSKDNRKPELDSLMEGGEGKLPTCVATGSPITEYQFWMCSVCKHGVLAQEISHYSFCPLCHSPVG [WDR35] | -0.105 | -0.261
3 | MAMASPAIGQRPYPLLLDPEPPRYLQSLSGPELPPPPPDRSSRLCVPAPLSTAPGAREGRSARRAARGNLEPPPRASRPARPLRPGLQQRLRRRPGAPRPRDVRSIFEQPQDPRVPAERGEGHCFAELVLPGGPGWCDLCGREVLRQALRCTNCKFTCHPECRSLIQLDCSQQEGLSRDRPSPESTLTVTFSQNVCKPVEETQRPPTLQEIKQKIDSYNTREKNCLGMKLSEDGTYTGFIKVHLKLRRPVTVPAGIRPQSIYDAIKEVNLAATTDKRTSFYLPLDAIKQLHISSTTTVSEVIQGLLKKFMVVDNPQKFALFKRIHKDGQVLFQKLSIADRPLYLRLLAGPDTEVLSFVLKENETGEVEWDAFSIPELQNFLTILEKEEQDKIQQVQKKYDKFRQKLEEALRESQGKPG [RASSF5] | -0.108 | 0.328
4 | CSNK1G1 | 0.0486 | -0.3
5 | MEGRSAAAETFVWVNNASAHSQSVAKAKYEFLFGRSEGKAPDTSDHGGSTLLPPNVTNEFPEYGTMEEGGEGLRASLEFDGEALPCHPQEQQGVQPLTGCHSGLDSVTEGPKDVREAPSQSHLKEQSLQPIDSLISALKATEARIISGTLQATKVLDQDAVSSFSVQQVEKELDTASRKTQRVNKTLPAGQKNLPEIPLSAEVTTEESFYLSIQKDLTALLTGDTQAEISQIMNNGRKGAVCVQEPSCPLASLGSSAVTCHSAGSVGFLKEQRSALGREHPGGCDRSSSMGRPGRVKHVEFQGVEILWTGGDKRETQHPIDFETSLQRTASPDSKESSKVPRHLISSAGLCNSSSLTENVWDESWKAPSERPGTSSGTFSPVRLDESGEDEVFLQENKQHLEKTPKPERDRERISEQEEHVKGEDEDILGPGYTEDSTDVYSSQFETILDNTSLYYSAESLETLYSEPDSYFSFEMPLTPMIQQRIKEGGQFLERTSGGGHQDILSVSADGGIVMGYSSGVTNGLNDASDSIYTKGTPEIAFWGSNAGVKTTRLEAHSEMGSTEILEKETPENLSNGTSSNVEAAKRLAKRLYQLDRFKRSDVAKHLGKNNEFSKLVAEEYLKFFDFTGMTLDQSLRYFFKAFSLVGETQERERVLIHFSNRYFYCNPDTIASQDGVHCLTCAIMLLNTDLHGHVNIGKKMTCQEFIANLQGVNEGVDFSKDLLKALYNSIKNEKLEWAVDDEEKKKSPSESTEEKANGTHPKTISRIGSTTNPFLDIPHDPNAAVYKSGFLARKIHADMDGKKTPRGKRGWKTFYAVLKGTVLYLQKDEYKPEKALSEEDLKNAVSVHHALASKATDYEKKPNVFKLKTADWRVLLFQTQSPEEMQGWINKINCVAAVFSAPPFPAAIGSQKKFSRPLLPATTTKLSQEEQLKSHESKLKQITTELAEHRSYPPDKKVKAKDVDEYKLKDHYLEFEKTRYEMYVSILKEGGKELLSNDESEAAGLKKSHSSPSLNPDTSPITAKVKRNVSERKDHRPETPSIKQKVT [PSD3] | -0.00479 | -0.107
6 | MAPEENAGTELLLQSFERRFLAARTLRSFPWQSLEAKLRDSSDSELLRDILHKTVKHPVCVKHPPSVKYARCFLSELIKKHEAVHTEPLDELYEALAETLMAKESTQGHRSYLLPSGGSVTLSESTAIISYGTTGLVTWDAALYLAEWAIENPAVFTNRTVLELGSGAGLTGLAICKMCRPRAYIFSDCHSRVLEQLRGNVLLNGLSLEADITAKLDSPRVTVAQLDWDVATVHQLSAFQPDVVIAADVLYCPEAIMSLVGVLRRLAACREHQRAPEVYVAFTVRNPETCQLFTTELGRAGIRWEVEPRHEQKLFPYEEHLEMAMLNLTL [EEF2KMT] | -0.00202 | 0.0707
7 | MSVDPMTYEAQFFGFTPQTCMLRIYIAFQDYLFEVMQAVEQVILKKLDGIPDCDISPVQIRKCTEKFLCFMKGHFDNLFSKMEQLFLQLILRIPSNILLPEDKCKETPYSEEDFQHLQKEIEQLQEKYKTELCTKQALLAELEEQKIVQAKLKQTLTFFDELHNVGRDHGTSDFRESLVSLVQNSRKLQNIRDNVEKESKRLKIS [MIS12] | 0.259 | -0.177
8 | MMDSPFLELWQSKAVSIREQLGLGDRPNDSYCYNSAKNSTVLQGVTFGGIPTVLLIDVSCFLFLILVFSIIRRRFWDYGRIALVSEADSESRFQRLSSTSSSGQQDFENELGCCPWLTAIFRLHDDQILEWCGEDAIHYLSFQRHIIFLLVVVSFLSLCVILPVNLSGDLLDKDPYSFGRTTIANLQTDNDLLWLHTIFAVIYLFLTVGFMRHHTQSIKYKEENLVRRTLFITGLPRDARKETVESHFRDAYPTCEVVDVQLCYNVAKLIYLCKEKKKTEKSLTYYTNLQVKTGQRTLINPKPCGQFCCCEVLGCEWEDAISYYTRMKDRLLERITEEERHVQDQPLGMAFVTFQEKSMATYILKDFNACKCQSLQCKGEPQPSSHSRELYTSKWTVTFAADPEDICWKNLSIQGLRWWLQWLGINFTLFLGLFFLTTPSIILSTMDKFNVTKPIHALNNPIISQFFPTLLLWSFSALLPSIVYYSTLLESHWTKSGENQIMMTKVYIFLIFMVLILPSLGLTSLDFFFRWLFDKTSSEASIRLECVFLPDQGAFFVNYVIASAFIGNGMELLRLPGLILYTFRMIMAKTAADRRNVKQNQAFQYEFGAMYAWMLCVFTVIVAYSITCPIIAPFGLIYILLKHMVDRHNLYFVYLPAKLEKGIHFAAVNQALAAPILCLFWLYFFSFLRLGMKAPATLFTFLVLLLTILVCLAHTCFGCFKHLSPLNYKTEEPASDKGSEAEAHMPPPFTPYVPRILNGLASERTALSPQQQQQQTYGAIHNISGTIPGQCLAQSATGSVAAAPQEA [TMEM63A] | 0.0055 | -0.142
9 | MPDQALQQMLDRSCWVCFATDEDDRTAEWVRPCRCRGSTKWVHQACLQRWVDEKQRGNSTARVACPQCNAEYLIVFPKLGPVVYVLDLADRLISKACPFAAAGIMVGSIYWTAVTYGAVTVMQVVGHKEGLDVMERADPLFLLIGLPTIPVMLILGKMIRWEDYVLRLWRKYSNKLQILNSIFPGIGCPVPRIPAEANPLADHVSATRILCGALVFPTIATIVGKLMFSSVNSNLQRTILGGIAFVAIKGAFKVYFKQQQYLRQAHRKILNYPEQEEA [MARCH5] | 0.0312 | -0.272
